# ± gives the standard deviation of the averaged measurements.
# Columns and labels:
# Saccharomyces cerevisiae [1] = assay: protein stability index of tFT-peptide fusion (C-terminal peptide) (PSI (0-1 scale)); higher = more stable (slower turnover)
# Description: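 MPS profiling in S. cerevisiae of the tFT-X12 degron library: putative degron peptides plus stable controls, 12 aa, fused to the C-terminus of a sfGFP-mCherry timer. Cells are FACS-sorted into 8 mCherry/sfGFP bins and deep-sequenced. PSI runs from 0 (unstable) to 1 (stable). Backgrounds are wild type, das1Δ and doa10Δ at 30 °C, and wild type, das1Δ, cdc34-1 and cdc53-1 at 37 °C; 2-3 technical replicates each.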
# Saccharomyces cerevisiae [2] = assay: as above; conditions: genetic background: wild type; temperature: 30 C
# [3] = genetic background: cdc34-1, temperature: 37 C
# [4] = genetic background: cdc53-1, temperature: 37 C
# [5] = genetic background: das1 deletion, temperature: 30 C
# [6] = genetic background: das1 deletion, temperature: 37 C
# [7] = genetic background: doa10 deletion, temperature: 30 C
# [8] = genetic background: wild type, temperature: 30 C
# [9] = genetic background: wild type, temperature: 37 C
# 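Note: PSI is a weighted mean of sequencing reads over stability bins, variants kept only with over 10 reads, mCherry proximal and sfGFP distal, peptide attached via GGGS linker.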
Sequence,protein stability index (Saccharomyces cerevisiae [1]; [3]),protein stability index (Saccharomyces cerevisiae [1]; [4]),protein stability index (Saccharomyces cerevisiae [1]; [5]),protein stability index (Saccharomyces cerevisiae [1]; [6]),protein stability index (Saccharomyces cerevisiae [1]; [7]),protein stability index (Saccharomyces cerevisiae [1]; [8]),protein stability index (Saccharomyces cerevisiae [1]; [9]),protein stability index (Saccharomyces cerevisiae [2])
VCVAVCFVMCGG,0.36 ± 0.022,0.457 ± 0.023,0.324 ± 0.023,0.499 ± 0.018,0.276 ± 0.0083,0.305 ± 0.0087,0.464 ± 0.03,0.3721 ± 0.0011
TLRINSPFYFLS,0.694 ± 0.058,0.703 ± 0.02,0.654 ± 0.019,0.7509 ± 0.0024,0.242 ± 0.011,0.282 ± 0.022,0.53 ± 0.021,0.419 ± 0.012
LRLEFRTNWFLQ,0.557 ± 0.042,0.7363 ± 0.0049,0.654 ± 0.015,0.752 ± 0.017,0.101 ± 0.016,0.132 ± 0.0047,0.402 ± 0.0072,0.2 ± 0.0067
NLFVFLSYLFNV,0.603 ± 0.051,0.66 ± 0.0075,0.563 ± 0.013,0.7168 ± 0.0052,0.336 ± 0.035,0.34 ± 0.014,0.484 ± 0.013,0.422 ± 0.022
WSLPPLLSPLYF,0.717 ± 0.035,0.753 ± 0.019,0.67 ± 0.016,0.758 ± 0.02,0.676 ± 0.024,0.672 ± 0.012,0.7198 ± 0.0018,0.667 ± 0.34
LYRIETLFMRAQ,0.353 ± 0.029,0.41 ± 0.022,0.435 ± 0.035,0.407 ± 0.035,0.389 ± 0.059,0.358 ± 0.019,0.354 ± 0.019,0.383 ± 0.021
GGYGAGLRSPLF,0.709 ± 0.04,0.755 ± 0.013,0.6761 ± 0.0025,0.741 ± 0.015,0.664 ± 0.014,0.661 ± 0.0099,0.729 ± 0.022,0.736 ± 0.044
LLFCFSVILFTC,0.0922 ± 0.0021,0.189 ± 0.062,0.187 ± 0.033,0.291 ± 0.018,0.0562 ± 0.022,0.0652 ± 0.018,0.0808 ± 0.0077,0.147 ± 0.018
HVLALIFLYIPD,0.43 ± 0.045,0.55 ± 0.032,0.33 ± 0.037,0.5422 ± 0.0044,0.317 ± 0.021,0.355 ± 0.019,0.501 ± 0.0067,0.4163 ± 0.0012
GINHLSLKLRLF,0.647 ± 0.049,0.723 ± 0.017,0.631 ± 0.014,0.7423 ± 0.0037,0.109 ± 0.037,0.133 ± 0.0058,0.288 ± 0.01,0.262 ± 0.017
IRWCLVSVFYVV,0.214 ± 0.028,0.364 ± 0.033,0.245 ± 0.033,0.444 ± 0.01,0.0753 ± 0.012,0.0978 ± 0.02,0.13554 ± 0.00011,0.192 ± 0.038
TYKHIVRVNKCE,0.594 ± 0.031,0.684 ± 0.021,0.627 ± 0.033,0.727 ± 0.0073,0.179 ± 0.0066,0.184 ± 0.025,0.286 ± 0.0033,0.318 ± 0.04
CFVSFLHLLYFS,0.347 ± 0.044,0.341 ± 0.025,0.35 ± 0.025,0.4666 ± 8.3e-05,0.506 ± 0.0063,0.296 ± 0.024,0.425 ± 0.0054,0.362 ± 0.015
VGIFKVCALVLR,0.325 ± 0.019,0.296 ± 0.011,0.324 ± 0.027,0.4622 ± 0.003,0.399 ± 0.0062,0.335 ± 0.016,0.446 ± 0.011,0.483 ± 0.0098
IACISCLLCVVV,0.608 ± 0.042,0.649 ± 0.038,0.479 ± 0.025,0.607 ± 0.017,0.479 ± 0.022,0.504 ± 0.0075,0.589 ± 0.0073,0.508 ± 0.015
WLLSFLRFLVLR,0.124 ± 0.015,0.0923 ± 0.027,0.322 ± 0.045,0.308 ± 0.02,0.8 ± 0.014,0.298 ± 0.026,0.32 ± 0.021,0.393 ± 0.029
KYKLYGIMIIEG,0.39 ± 0.066,0.464 ± 0.016,0.283 ± 0.039,0.472 ± 0.026,0.258 ± 0.012,0.262 ± 0.013,0.462 ± 0.04,0.329 ± 0.078
DKVTLLRRCKQY,0.606 ± 0.03,0.726 ± 0.009,0.634 ± 0.026,0.701 ± 0.015,0.173 ± 0.029,0.206 ± 0.03,0.311 ± 0.012,0.202 ± 0.12
CRQDWMCFVYLS,0.0642 ± 0.013,0.0406 ± 0.0042,0.145 ± 0.021,0.187 ± 0.031,0.166 ± 0.0047,0.0558 ± 0.007,0.0647 ± 0.023,0.108 ± 0.016
LSPPLRHRLTPP,0.675 ± 0.014,0.729 ± 0.022,0.687 ± 0.032,0.712 ± 0.029,0.67109 ± 0.00013,0.669 ± 0.015,0.6731 ± 0.0065,0.715 ± 0.047

# From the supplement of paper PMC10724198
